Results on six substances are retold here after the supplement of paper PMC5998384.

Data set [1] relates to HeLa Kyoto. The experiment in a line: melting temperature (median over replicates), in situ; higher = more thermally stable.
Data set [2] has as its system HeLa Kyoto. Kind of data set: solubility in G1/S (NP-40 vs SDS abundance) (log2 ratio); higher = more soluble. The settings on record: cell cycle stage: G1/S.
The test system of data set [3] is HeLa Kyoto. Kind of data set: solubility change mitosis vs G1/S (difference of NP-40 vs SDS log2 ratios) (log2 ratio difference); higher = more soluble in mitosis.
For data set [4], the system named is HeLa Kyoto. Kind of data set: thermal stability score vs G1/S (z-score of summed log2 fold changes over temperatures); higher = more thermally stable than in G1/S.
The mark [5] stands for this setting: cell cycle stage: early G1 (4.5 h after nocodazole release).
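Throughout, for melting temperature (median over replicates), in situ: HeLa Kyoto cells synchronized by double thymidine or nocodazole block, proteins quantified by TMT10plex mass spectrometry, three independent biological replicates.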
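Throughout, for solubility change mitosis vs G1/S (difference of NP-40 vs SDS log2 ratios): synchronized HeLa Kyoto cells (double thymidine block for G1/S, nocodazole release for mitosis), protein amounts in NP-40 versus SDS lysates quantified by mass spectrometry, three biological replicates.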
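Throughout, for solubility in G1/S (NP-40 vs SDS abundance): HeLa Kyoto cells arrested at G1/S by double thymidine block, proteins quantified by TMT10plex mass spectrometry in mild NP-40 versus SDS extracts, three biological replicates.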
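Throughout, for thermal stability score vs G1/S (z-score of summed log2 fold changes over temperatures): synchronized HeLa Kyoto cells, proteins quantified by TMT10plex mass spectrometry, three biological replicates, mitosis taken 0.5 h after nocodazole release, G1/S directly after double thymidine block.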

Sequence of ZMAT2 (chain, as listed by the source): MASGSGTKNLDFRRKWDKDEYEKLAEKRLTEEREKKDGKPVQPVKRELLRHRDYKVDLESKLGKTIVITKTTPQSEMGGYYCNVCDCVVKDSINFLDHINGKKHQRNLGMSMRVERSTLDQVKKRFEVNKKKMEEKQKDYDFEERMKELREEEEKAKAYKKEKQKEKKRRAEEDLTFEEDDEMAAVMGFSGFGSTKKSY

Regarding “MARAGPAWLLLAIWVVLPSWLSSAKVSSLIERISDPKDLKKLLRTRNNVLVLYSKSEVAAENHLRLLSTVAQAVKGQGTICWVDCGDAESRKLCKKMKVDLSPKDKKVELFHYQDGAFHTEYNRAVTFKSIVAFLKDPKGPPLWEEDPGAKDVVHLDSEKDFRRLLKKEEKPLLIMFYAPWCSMCKRMMPHFQKAATQLRGHAVLAGMNVYSSEFENIKEEYSVRGFPTICYFEKGRFLFQYDNYGSTAEDIVEWLKNPQPPQPQVPETPWADEGGSVYHLTDEDFDQFVKEHSSVLVMFHAPWCGHCKKMKPEFEKAAEALHGEADSSGVLAAVDATVNKALAERFHISEFPTLKYFKNGEKYAVPVLRTKKKFLEWMQNPEAPPPPEPTWEEQQTSVLHLVGDNFRETLKKKKHTLVMFYAPWCPHCKKVIPHFTATADAFKDDRKIACAAVDCVKDKNQDLCQQEAVKGYPTFHYYHYGKFAEKYDSDRTELGFTNYIRALREGDHERLGKKKEEL [PDIA5]”, the results for the melting temperature in the data set on HeLa Kyoto [1] (cell cycle stage: G1/S) and with HeLa Kyoto [1] (cell cycle stage: mitosis) were 53.8 °C and 54.5 °C, respectively. The “solubility in G1/S (log2)” value in the data set on HeLa Kyoto [2] is -0.136. The “solubility change mitosis (log2)” value in the data set on HeLa Kyoto [3] was -0.0327. Also, the thermal stability score in the data set with HeLa Kyoto [4] (setting [5]) worked out at 2.7; in the data set on HeLa Kyoto [4] (cell cycle stage: mitosis), 2.84.
As to “MAGDLSAGFFMEELNTYRQKQGVVLKYQELPNSGPPHDRRFTFQVIIDGREFPEGEGRSKKEAKNAAAKLAVEILNKEKKAVSPLLLTTTNSSEGLSMGNYIGLINRIAQKKRLTVNYEQCASGVHGPEGFHYKCKMGQKEYSIGTGSTKQEAKQLAAKLAYLQILSEETSVKSDYLSSGSFATTCESQSNSLVTSTLASESSSEGDFSADTSEINSNSDSLNSSSLLMNGLRNNQRKAKRSLAPRFDLPDMKETKYTVDKRFGMDFKEIELIGSGGFGQVFKAKHRIDGKTYVIKRVKYNNEKAEREVKALAKLDHVNIVHYNGCWDGFDYDPETSDDSLESSDYDPENSKNSSRSKTKCLFIQMEFCDKGTLEQWIEKRRGEKLDKVLALELFEQITKGVDYIHSKKLIHRDLKPSNIFLVDTKQVKIGDFGLVTSLKNDGKRTRSKGTLRYMSPEQISSQDYGKEVDLYALGLILAELLHVCDTAFETSKFFTDLRDGIISDIFDKKEKTLLQKLLSKKPEDRPNTSEILRTLTVWKKSPEKNERHTC [EIF2AK2]”, the melting temperature amounted to 47.1 °C in the data set with HeLa Kyoto [1] (cell cycle stage: G1/S) and 48 °C in the data set with HeLa Kyoto [1] (cell cycle stage: mitosis). For the same substance, the “solubility in G1/S (log2)” value in the data set with HeLa Kyoto [2] is -0.283. Moreover, the “solubility change mitosis (log2)” value in the data set on HeLa Kyoto [3] was -0.0511. Moreover, the thermal stability score with HeLa Kyoto [4] (setting [5]) is 1.01; in the data set on HeLa Kyoto [4] (cell cycle stage: mitosis), 3.12.
For the substance “MQPWHGKAMQRASEAGATAPKASARNARGAPMDPTESPAAPEAALPKAGKFGPARKSGSRQKKSAPDTQERPPVRATGARAKKAPQRAQDTQPSDATSAPGAEGLEPPAAREPALSRAGSCRQRGARCSTKPRPPPGPWDVPSPGLPVSAPILVRRDAAPGASKLRAVLEKLKLSRDDISTAAGMVKGVVDHLLLRLKCDSAFRGVGLLNTGSYYEHVKISAPNEFDVMFKLEVPRIQLEEYSNTRAYYFVKFKRNPKENPLSQFLEGEILSASKMLSKFRKIIKEEINDIKDTDVIMKRKRGGSPAVTLLISEKISVDITLALESKSSWPASTQEGLRIQNWLSAKVRKQLRLKPFYLVPKHAKEGNGFQEETWRLSFSHIEKEILNNHGKSKTCCENKEEKCCRKDCLKLMKYLLEQLKERFKDKKHLDKFSSYHVKTAFFHVCTQNPQDSQWDRKDLGLCFDNCVTYFLQCLRTEKLENYFIPEFNLFSSNLIDKRSKEFLTKQIEYERNNEFPVFDEF [MB21D1]”, the melting temperature in the data set with HeLa Kyoto [1] (cell cycle stage: G1/S) was determined as 52.6 °C; in the data set on HeLa Kyoto [1] (cell cycle stage: mitosis) it was 53.9 °C. For the same substance, the “solubility in G1/S (log2)” value in the data set on HeLa Kyoto [2] is -1.72. Further, the “solubility change mitosis (log2)” value in the data set with HeLa Kyoto [3] is -0.155. Moreover, the thermal stability score in the data set with HeLa Kyoto [4] (setting [5]) was -0.379; in the data set on HeLa Kyoto [4] (cell cycle stage: mitosis), 1.19.
Turning to “MQKASVLLFLAWVCFLFYAGIALFTSGFLLTRLELTNHSSCQEPPGPGSLPWGSQGKPGACWMASRFSRVVLVLIDALRFDFAQPQHSHVPREPPVSLPFLGKLSSLQRILEIQPHHARLYRSQVDPPTTTMQRLKALTTGSLPTFIDAGSNFASHAIVEDNLIKQLTSAGRRVVFMGDDTWKDLFPGAFSKAFFFPSFNVRDLDTVDNGILEHLYPTMDSGEWDVLIAHFLGVDHCGHKHGPHHPEMAKKLSQMDQVIQGLVERLENDTLLVVAGDHGMTTNGDHGGDSELEVSAALFLYSPTAVFPSTPPEEPEVIPQVSLVPTLALLLGLPIPFGNIGEVMAELFSGGEDSQPHSSALAQASALHLNAQQVSRFLHTYSAATQDLQAKELHQLQNLFSKASADYQWLLQSPKGAEATLPTVIAELQQFLRGARAMCIESWARFSLVRMAGGTALLAASCFICLLASQWAISPGFPFCPLLLTPVAWGLVGAIAYAGLLGTIELKLDLVLLGAVAAVSSFLPFLWKAWAGWGSKRPLATLFPIPGPVLLLLLFRLAVFFSDSFVVAEARATPFLLGSFILLLVVQLHWEGQLLPPKLLTMPRLGTSATTNPPRHNGAYALRLGIGLLLCTRLAGLFHRCPEETPVCHSSPWLSPLASMVGGRAKNLWYGACVAALVALLAAVRLWLRRYGNLKSPEPPMLFVRWGLPLMALGTAAYWALASGADEAPPRLRVLVSGASMVLPRAVAGLAASGLALLLWKPVTVLVKAGAGAPRTRTVLTPFSGPPTSQADLDYVVPQIYRHMQEEFRGRLERTKSQGPLTVAAYQLGSVYSAAMVTALTLLAFPLLLLHAERISLVFLLLFLQSFLLLHLLAAGIPVTTPGPFTVPWQAVSAWALMATQTFYSTGHQPVFPAIHWHAAFVGFPEGHGSCTWLPALLVGANTFASHLLFAVGCPLLLLWPFLCESQGLRKRQQPPGNEADARVRPEEEEEPLMEMRLRDAPQHFYAALLQLGLKYLFILGIQILACALAASILRRHLMVWKVFAPKFIFEAVGFIVSSVGLLLGIALVMRVDGAVSSWFRQLFLAQQR [PIGO]”, the values for the melting temperature in the data set with HeLa Kyoto [1] (cell cycle stage: G1/S) and with HeLa Kyoto [1] (cell cycle stage: mitosis) were 53.6 °C and 52.7 °C, respectively. Also, the “solubility in G1/S (log2)” value in the data set with HeLa Kyoto [2] was -0.193. Besides, the “solubility change mitosis (log2)” value with HeLa Kyoto [3] worked out at 0.0305. The thermal stability score in the data set with HeLa Kyoto [4] (setting [5]) was -0.415; in the data set with HeLa Kyoto [4] (cell cycle stage: mitosis), -0.374.
For the substance “MLKQILSEMYIDPDLLAELSEEQKQILFFKMREEQIRRWKEREAAMERKESLPVKPRPKKENGKSVHWKLGADKEVWVWVMGEHHLDKPYDVLCNEIIAERARLKAEQEAEEPRKTHSEEFTNSLKTKSQYHDLQAPDNQQTKDIWKKVAEKEELEQGSRPAPTLEEEKIRSLSSSSRNIQQMLADSINRMKAYAFHQKKESMKKKQDEEINQIEEERTKQICKSWKEDSEWQASLRKSKAADEKRRSLAKQAREDYKRLSLGAQKGRGGERLQSPLRVPQKPERPPLPPKPQFLNSGAYPQKPLRNQGVVRTLSSSAQEDIIRWFKEEQLPLRAGYQKTSDTIAPWFHGILTLKKANELLLSTGMPGSFLIRVSERIKGYALSYLSEDGCKHFLIDASADAYSFLGVDQLQHATLADLVEYHKEEPITSLGKELLLYPCGQQDQLPDYLELFE [SH2D4A]”, the melting temperature with HeLa Kyoto [1] (cell cycle stage: G1/S) stood at 49 °C; with HeLa Kyoto [1] (cell cycle stage: mitosis), 49.5 °C. In addition, the “solubility in G1/S (log2)” value in the data set with HeLa Kyoto [2] worked out at 0.308. In addition, in the data set on HeLa Kyoto [3], the “solubility change mitosis (log2)” value was -0.0397. Further, the values for the thermal stability score in the data set with HeLa Kyoto [4] (setting [5]) and in the data set with HeLa Kyoto [4] (cell cycle stage: mitosis) were -0.202 and 0.42, respectively.
With ZMAT2, the melting temperature amounted to 57.8 °C in the data set with HeLa Kyoto [1] (cell cycle stage: G1/S) and 54.3 °C in the data set on HeLa Kyoto [1] (cell cycle stage: mitosis). The “solubility in G1/S (log2)” value with HeLa Kyoto [2] is -0.324. In the data set with HeLa Kyoto [3], the “solubility change mitosis (log2)” value was found to be 0.427. Moreover, the results for the thermal stability score in the data set with HeLa Kyoto [4] (setting [5]) and in the data set with HeLa Kyoto [4] (cell cycle stage: mitosis) were 1.39 and -4.93, respectively.
